In US6365126:

Molecular target: H-Ras, P01112
Sequence (P01112 whole entry, looked up): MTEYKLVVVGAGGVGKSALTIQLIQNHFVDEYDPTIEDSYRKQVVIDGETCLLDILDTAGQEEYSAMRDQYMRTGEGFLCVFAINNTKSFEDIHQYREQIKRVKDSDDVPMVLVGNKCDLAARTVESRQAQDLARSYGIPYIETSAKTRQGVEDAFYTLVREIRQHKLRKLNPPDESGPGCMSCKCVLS

Row | Protein | GTPase activity of H-Ras (GAP assay)
1 | human p120GAP catalytic domain fusion protein (protein) MEKIMPEEEYSEFKELILQKELHVVYALSHVCGQDRTLLASILLRIFLHEKLESLLLCTLNDREISMEDEATTLFRATTLASTLMEQYMKATATQFVHHALKDSILKIMESKQSCELSPSKLEKNEDVNTNLTHLLNILSELVEKIFMASEILPPTLRYIYGCLQKSVQHKWPTNTTMRTRVVSGFVFLRLICPAILNPRMFNIISDSPSPIAARTLILVAKSVQNLANLVEFGAKEPYMEGVNPFIKSNKHRMIMFLDELGNVPELPDTTEHSRTDLSRDLAALHEICVAHSDELRTLSNERGAQQHVLKKLLAITELLQQKQNQYTKTNDVR | All three fusion proteins stimulated the GTPase activity of H-Ras
2 | Drosophila NF1 catalytic domain (amino acids 1,235-1,614) bacterial fusion protein (protein) TEFDTLAETVLADRFEQLVQLVTMISDKGELPIAMALANVVTTSQMDELARVLVTLFDAKHLLSPLLWNMFYREVEVSDCMQTLFRGNSLGSKIMAFCFKIYGASYLQMLLEPLIRPLLDEEEETCFEVDPARLDPTEDIEQHRNNLIALTQKVFDAIINSSDRFPPQLRSMCHCLYQVLSKRFPNLLQNNIGAVGTVIFLRFINPAIVSPQELGIVDKQVHSSAKRGLMLMSKILQNIANHVEFSKEQHMLCFNDFLRDHFEAGRRFFIQIASDCETVDQTSHSMSFISDANVLALHRLLWTHQEKIGDYLSSSRDHKAVGRRPFDKMATLLAYLGPPEHKPVDSHMMFSSYARWSSIDMSSTNFEEIMVKHQMHEKEE | All three fusion proteins stimulated the GTPase activity of H-Ras
